Results taken from PMC10836720.

Target: A. baumannii 118362 Family 2A encapsulin shell protein (J517_0527) (Acinetobacter baumannii 118362)
Experiment: cryo-EM structure

Substance: A. baumannii 118362 Family 2A encapsulin shell protein (J517_0527) (natural protein)
- stoichiometry N: 60 subunits
